In the assay the target is full-length human Hsp90α (human), P07900. In words: BLI.

For orientation: Kd means the constant that tells how readily two partners part at equilibrium. The low end stands for higher affinity, the high end for lower affinity.

Regarding PRPRPRPRPRPRPRPRPRPRPRPRPRPRPRPRPRPRPRPR (modifications not checked) [PR20 dipeptide repeats], the Kd was determined as 9.08 nM.

On to GRGRGRGRGRGRGRGRGRGRGRGRGRGRGRGRGRGRGRGR (modifications not checked) [GR20 dipeptide repeats], for which the Kd is 8.97 nM.
